# Assay results as given in the Human Domainome abundance scans (Beltran et al. 2025).
# ± gives the uncertainty stated by the source.
# B1: Transcriptional regulator ERG, residues 117 to 197; numbered along this chain, P11308 (parent)
# chain: NMTTNERRVIVPADPTLWSTDHVRQWLEWAVKEYGLPDVNILLFQNIDGKELCKMTKDDFQRLTPSYNADILLSHLHYLRE
# Variants of: B1
# Test: abundance fitness (aPCA) (normalised: wild type 0, dead -1); higher = more abundant; growth selection in yeast, the domain comes from the species named
# Settings: Homo sapiens
row,Variant,abundance fitness
1,NMTTNERRVIVPADPTLWSTDHVRQWLEWAVKEYGLPDVNILLFQNIDGKELCKQTKDDFQRLTPSYNADILLSHLHYLRE [M55Q],-0.924 ± 0.24
2,NMTTNERRVIVPADPTLWSTDHVRQWLEWAVKEYGLPDVNILLFQNIDGKELCKTTKDDFQRLTPSYNADILLSHLHYLRE [M55T],-0.703 ± 0.18
3,NMTTNERRVIVPADPTLWSTDHVRQWLEWAVKEYGLPDVNILLFQNIDGKELCKCTKDDFQRLTPSYNADILLSHLHYLRE [M55C],-0.278 ± 0.1
4,NMTTNERRVIVPADPTLWSTDHVRQWLEWAVKEYGLPDVNILLFQNIDGKELCKDTKDDFQRLTPSYNADILLSHLHYLRE [M55D],-0.745 ± 0.34
5,NMTTNERRVIVPADPTLWSTDHVRQWLEWAVKEYGLPDVNILLFQNIDGKELCKKTKDDFQRLTPSYNADILLSHLHYLRE [M55K],-0.315 ± 0.097
6,NMTTNERRVIVPADPTLWSTDHVRQWLEWAVKEYGLPDVNILLFQNIDGKELCKNTKDDFQRLTPSYNADILLSHLHYLRE [M55N],-0.37 ± 0.25
7,NMTTNERRVIVPADPTLWSTDHVRQWLEWAVKEYGLPDVNILLFQNIDGKELCKWTKDDFQRLTPSYNADILLSHLHYLRE [M55W],-0.091 ± 0.069
8,NMTTNERRVIVPADPTLWSTDHVRQWLEWAVKEYGLPDVNILLFQNIDGKELCKSTKDDFQRLTPSYNADILLSHLHYLRE [M55S],-1.14 ± 0.28
9,NMTTNERRVIVPADPTLWSTDHVRQWLEWAVKEYGLPDVNILLFQNIDGKELCKATKDDFQRLTPSYNADILLSHLHYLRE [M55A],-0.842 ± 0.18
10,NMTTNERRVIVPADPTLWSTDHVRQWLEWAVKEYGLPDVNILLFQNIDGKELCKFTKDDFQRLTPSYNADILLSHLHYLRE [M55F],-0.136 ± 0.12
11,NMTTNERRVIVPADPTLWSTDHVRQWLEWAVKEYGLPDVNILLFQNIDGKELCKRTKDDFQRLTPSYNADILLSHLHYLRE [M55R],-0.65 ± 0.098
12,NMTTNERRVIVPADPTLWSTDHVRQWLEWAVKEYGLPDVNILLFQNIDGKELCKETKDDFQRLTPSYNADILLSHLHYLRE [M55E],-1.09 ± 0.24
13,NMTTNERRVIVPADPTLWSTDHVRQWLEWAVKEYGLPDVNILLFQNIDGKELCKITKDDFQRLTPSYNADILLSHLHYLRE [M55I],-0.431 ± 0.18
14,NMTTNERRVIVPADPTLWSTDHVRQWLEWAVKEYGLPDVNILLFQNIDGKELCKGTKDDFQRLTPSYNADILLSHLHYLRE [M55G],-0.807 ± 0.087
15,NMTTNERRVIVPADPTLWSTDHVRQWLEWAVKEYGLPDVNILLFQNIDGKELCKLTKDDFQRLTPSYNADILLSHLHYLRE [M55L],-0.023 ± 0.059
16,NMTTNERRVIVPADPTLWSTDHVRQWLEWAVKEYGLPDVNILLFQNIDGKELCNMTKDDFQRLTPSYNADILLSHLHYLRE [K54N],-0.054 ± 0.09
17,NMTTNERRVIVPADPTLWSTDHVRQWLEWAVKEYGLPDVNILLFQNIDGKELCYMTKDDFQRLTPSYNADILLSHLHYLRE [K54Y],-0.117 ± 0.099
18,NMTTNERRVIVPADPTLWSTDHVRQWLEWAVKEYGLPDVNILLFQNIDGKELCFMTKDDFQRLTPSYNADILLSHLHYLRE [K54F],-0.227 ± 0.14
19,NMTTNERRVIVPADPTLWSTDHVRQWLEWAVKEYGLPDVNILLFQNIDGKELCRMTKDDFQRLTPSYNADILLSHLHYLRE [K54R],-0.049 ± 0.046
20,NMTTNERRVIVPADPTLWSTDHVRQWLEWAVKEYGLPDVNILLFQNIDGKELCHMTKDDFQRLTPSYNADILLSHLHYLRE [K54H],-0.071 ± 0.099
21,NMTTNERRVIVPADPTLWSTDHVRQWLEWAVKEYGLPDVNILLFQNIDGKELCGMTKDDFQRLTPSYNADILLSHLHYLRE [K54G],-0.028 ± 0.037
22,NMTTNERRVIVPADPTLWSTDHVRQWLEWAVKEYGLPDVNILLFQNIDGKELCEMTKDDFQRLTPSYNADILLSHLHYLRE [K54E],0.072 ± 0.055
23,NMTTNERRVIVPADPTLWSTDHVRQWLEWAVKEYGLPDVNILLFQNIDGKELCCMTKDDFQRLTPSYNADILLSHLHYLRE [K54C],-0.112 ± 0.095

row,Variant,abundance fitness
1,NMTTNERRVIVPADPTLWSTDHVRQWLEWAVKEYGLPDVNILLFQNIDGKELCVMTKDDFQRLTPSYNADILLSHLHYLRE [K54V],-0.238 ± 0.063
2,NMTTNERRVIVPADPTLWSTDHVRQWLEWAVKEYGLPDVNILLFQNIDGKELCPMTKDDFQRLTPSYNADILLSHLHYLRE [K54P],-1.08 ± 0.32
3,NMTTNERRVIVPADPTLWSTDHVRQWLEWAVKEYGLPDVNILLFQNIDGKELCWMTKDDFQRLTPSYNADILLSHLHYLRE [K54W],-0.41 ± 0.09
4,NMTTNERRVIVPADPTLWSTDHVRQWLEWAVKEYGLPDVNILLFQNIDGKELCLMTKDDFQRLTPSYNADILLSHLHYLRE [K54L],-0.103 ± 0.055
5,NMTTNERRVIVPADPTLWSTDHVRQWLEWAVKEYGLPDVNILLFQNIDGKELCQMTKDDFQRLTPSYNADILLSHLHYLRE [K54Q],-0.118 ± 0.12
6,NMTTNERRVIVPADPTLWSTDHVRQWLEWAVKEYGLPDVNILLFQNIDGKELCSMTKDDFQRLTPSYNADILLSHLHYLRE [K54S],0.092 ± 0.055
7,NMTTNERRVIVPADPTLWSTDHVRQWLEWAVKEYGLPDVNILLFQNIDGKELCDMTKDDFQRLTPSYNADILLSHLHYLRE [K54D],0.021 ± 0.099
8,NMTTNERRVIVPADPTLWSTDHVRQWLEWAVKEYGLPDVNILLFQNIDGKELCTMTKDDFQRLTPSYNADILLSHLHYLRE [K54T],-0.094 ± 0.084
9,NMTTNERRVIVPADPTLWSTDHVRQWLEWAVKEYGLPDVNILLFQNIDGKELCIMTKDDFQRLTPSYNADILLSHLHYLRE [K54I],-0.377 ± 0.17
10,NMTTNERRVIVPADPTLWSTDHVRQWLEWAVKEYGLPDVNILLFQNIDGKELQKMTKDDFQRLTPSYNADILLSHLHYLRE [C53Q],-0.269 ± 0.082
11,NMTTNERRVIVPADPTLWSTDHVRQWLEWAVKEYGLPDVNILLFQNIDGKELTKMTKDDFQRLTPSYNADILLSHLHYLRE [C53T],-0.06 ± 0.046
12,NMTTNERRVIVPADPTLWSTDHVRQWLEWAVKEYGLPDVNILLFQNIDGKELPKMTKDDFQRLTPSYNADILLSHLHYLRE [C53P],-1.06 ± 0.19
13,NMTTNERRVIVPADPTLWSTDHVRQWLEWAVKEYGLPDVNILLFQNIDGKELRKMTKDDFQRLTPSYNADILLSHLHYLRE [C53R],-0.391 ± 0.072
14,NMTTNERRVIVPADPTLWSTDHVRQWLEWAVKEYGLPDVNILLFQNIDGKELHKMTKDDFQRLTPSYNADILLSHLHYLRE [C53H],-0.574 ± 0.09
15,NMTTNERRVIVPADPTLWSTDHVRQWLEWAVKEYGLPDVNILLFQNIDGKELAKMTKDDFQRLTPSYNADILLSHLHYLRE [C53A],-0.132 ± 0.048
16,NMTTNERRVIVPADPTLWSTDHVRQWLEWAVKEYGLPDVNILLFQNIDGKELEKMTKDDFQRLTPSYNADILLSHLHYLRE [C53E],-0.471 ± 0.11
17,NMTTNERRVIVPADPTLWSTDHVRQWLEWAVKEYGLPDVNILLFQNIDGKELLKMTKDDFQRLTPSYNADILLSHLHYLRE [C53L],0 ± 0.038
18,NMTTNERRVIVPADPTLWSTDHVRQWLEWAVKEYGLPDVNILLFQNIDGKELFKMTKDDFQRLTPSYNADILLSHLHYLRE [C53F],-0.235 ± 0.054
19,NMTTNERRVIVPADPTLWSTDHVRQWLEWAVKEYGLPDVNILLFQNIDGKELYKMTKDDFQRLTPSYNADILLSHLHYLRE [C53Y],-0.509 ± 0.12
20,NMTTNERRVIVPADPTLWSTDHVRQWLEWAVKEYGLPDVNILLFQNIDGKELIKMTKDDFQRLTPSYNADILLSHLHYLRE [C53I],-0.099 ± 0.051
21,NMTTNERRVIVPADPTLWSTDHVRQWLEWAVKEYGLPDVNILLFQNIDGKELWKMTKDDFQRLTPSYNADILLSHLHYLRE [C53W],-0.561 ± 0.11
22,NMTTNERRVIVPADPTLWSTDHVRQWLEWAVKEYGLPDVNILLFQNIDGKELNKMTKDDFQRLTPSYNADILLSHLHYLRE [C53N],-0.228 ± 0.072
23,NMTTNERRVIVPADPTLWSTDHVRQWLEWAVKEYGLPDVNILLFQNIDGKELVKMTKDDFQRLTPSYNADILLSHLHYLRE [C53V],-0.034 ± 0.041

row,Variant,abundance fitness
1,NMTTNERRVIVPADPTLWSTDHVRQWLEWAVKEYGLPDVNILLFQNIDGKELGKMTKDDFQRLTPSYNADILLSHLHYLRE [C53G],-0.262 ± 0.058
2,NMTTNERRVIVPADPTLWSTDHVRQWLEWAVKEYGLPDVNILLFQNIDGKELDKMTKDDFQRLTPSYNADILLSHLHYLRE [C53D],-0.325 ± 0.085
3,NMTTNERRVIVPADPTLWSTDHVRQWLEWAVKEYGLPDVNILLFQNIDGKELSKMTKDDFQRLTPSYNADILLSHLHYLRE [C53S],-0.15 ± 0.046
4,NMTTNERRVIVPADPTLWSTDHVRQWLEWAVKEYGLPDVNILLFQNIDGKELMKMTKDDFQRLTPSYNADILLSHLHYLRE [C53M],0.043 ± 0.058
5,NMTTNERRVIVPADPTLWSTDHVRQWLEWAVKEYGLPDVNILLFQNIDGKEQCKMTKDDFQRLTPSYNADILLSHLHYLRE [L52Q],-0.946 ± 0.17
6,NMTTNERRVIVPADPTLWSTDHVRQWLEWAVKEYGLPDVNILLFQNIDGKEWCKMTKDDFQRLTPSYNADILLSHLHYLRE [L52W],-0.809 ± 0.18
7,NMTTNERRVIVPADPTLWSTDHVRQWLEWAVKEYGLPDVNILLFQNIDGKETCKMTKDDFQRLTPSYNADILLSHLHYLRE [L52T],-1.11 ± 0.17
8,NMTTNERRVIVPADPTLWSTDHVRQWLEWAVKEYGLPDVNILLFQNIDGKEKCKMTKDDFQRLTPSYNADILLSHLHYLRE [L52K],-0.728 ± 0.11
9,NMTTNERRVIVPADPTLWSTDHVRQWLEWAVKEYGLPDVNILLFQNIDGKEFCKMTKDDFQRLTPSYNADILLSHLHYLRE [L52F],-0.327 ± 0.07
10,NMTTNERRVIVPADPTLWSTDHVRQWLEWAVKEYGLPDVNILLFQNIDGKESCKMTKDDFQRLTPSYNADILLSHLHYLRE [L52S],-0.932 ± 0.12
11,NMTTNERRVIVPADPTLWSTDHVRQWLEWAVKEYGLPDVNILLFQNIDGKEHCKMTKDDFQRLTPSYNADILLSHLHYLRE [L52H],-0.689 ± 0.11
12,NMTTNERRVIVPADPTLWSTDHVRQWLEWAVKEYGLPDVNILLFQNIDGKEECKMTKDDFQRLTPSYNADILLSHLHYLRE [L52E],-0.367 ± 0.18
13,NMTTNERRVIVPADPTLWSTDHVRQWLEWAVKEYGLPDVNILLFQNIDGKEYCKMTKDDFQRLTPSYNADILLSHLHYLRE [L52Y],-0.883 ± 0.13
14,NMTTNERRVIVPADPTLWSTDHVRQWLEWAVKEYGLPDVNILLFQNIDGKEMCKMTKDDFQRLTPSYNADILLSHLHYLRE [L52M],-0.324 ± 0.071
15,NMTTNERRVIVPADPTLWSTDHVRQWLEWAVKEYGLPDVNILLFQNIDGKEICKMTKDDFQRLTPSYNADILLSHLHYLRE [L52I],-0.126 ± 0.054
16,NMTTNERRVIVPADPTLWSTDHVRQWLEWAVKEYGLPDVNILLFQNIDGKEGCKMTKDDFQRLTPSYNADILLSHLHYLRE [L52G],-0.694 ± 0.17
17,NMTTNERRVIVPADPTLWSTDHVRQWLEWAVKEYGLPDVNILLFQNIDGKERCKMTKDDFQRLTPSYNADILLSHLHYLRE [L52R],-0.77 ± 0.11
18,NMTTNERRVIVPADPTLWSTDHVRQWLEWAVKEYGLPDVNILLFQNIDGKEPCKMTKDDFQRLTPSYNADILLSHLHYLRE [L52P],-0.886 ± 0.12
19,NMTTNERRVIVPADPTLWSTDHVRQWLEWAVKEYGLPDVNILLFQNIDGKEVCKMTKDDFQRLTPSYNADILLSHLHYLRE [L52V],-0.308 ± 0.069
20,NMTTNERRVIVPADPTLWSTDHVRQWLEWAVKEYGLPDVNILLFQNIDGKENCKMTKDDFQRLTPSYNADILLSHLHYLRE [L52N],-0.97 ± 0.17
21,NMTTNERRVIVPADPTLWSTDHVRQWLEWAVKEYGLPDVNILLFQNIDGKELCKMAKDDFQRLTPSYNADILLSHLHYLRE [T56A],-0.118 ± 0.077
22,NMTTNERRVIVPADPTLWSTDHVRQWLEWAVKEYGLPDVNILLFQNIDGKELCKMCKDDFQRLTPSYNADILLSHLHYLRE [T56C],-0.024 ± 0.17
